Target: Human recombinant voltage-dependent anion channel (human, UniProt P21796 1-283)
Assay: radioligand binding

Sequence of Human recombinant voltage-dependent anion channel (P21796 whole entry): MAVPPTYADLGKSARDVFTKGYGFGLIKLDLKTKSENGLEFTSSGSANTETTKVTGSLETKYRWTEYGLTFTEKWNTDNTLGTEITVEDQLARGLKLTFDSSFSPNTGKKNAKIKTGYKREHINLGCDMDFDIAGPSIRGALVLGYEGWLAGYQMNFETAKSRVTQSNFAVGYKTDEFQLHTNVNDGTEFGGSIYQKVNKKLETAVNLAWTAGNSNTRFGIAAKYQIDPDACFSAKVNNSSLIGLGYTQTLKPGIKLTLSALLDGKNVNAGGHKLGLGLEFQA

binding result: binds
B1: HK-I peptide Met1-Lys21 (P2) (peptide)
peptide: MIAAQLLAYYFTELKDDQVKKC

— article PMC2943043 (Journal of neuroimmunology, 2010)
